Values quoted from earlier work, collected in paper PMC10580911.

Target: Tk-subtilisin (Thermococcus kodakarensis) (UniProt P58502)

- Kd: 1.4 nM
Substance: Tk-subtilisin propeptide propeptide (from UniProt P58502)
